According to paper PMC9537018:

Tests used:
[1] = immunoblot of protein level, rescue by MG132 or CQ; conditions: glycan lost; control: untreated WT-SND1-EGFP
[2] = confocal colocalisation with Golgi marker GM130; conditions: glycan lost; control: WT-SND1-EGFP
[3] = confocal colocalisation with ER marker CNX; conditions: glycan lost; control: WT-SND1-EGFP

| Protein | degradation_or_half_life [1] | localisation_or_trafficking [2] | localisation_or_trafficking [3] |
| --- | --- | --- | --- |
| Staphylococcal nuclease domain-containing protein 1 (SND1): tunicamycin (protein) parent chain: MASSAQSGGSSGGPAVPTVQRGIIKMVLSGCAIIVRGQPRGGPPPERQINLSNIRAGNLARRAAATQPDAKDTPDEPWAFPAREFLRKKLIGKEVCFTIENKTPQGREYGMIYLGKDTNGENIAESLVAEGLATRREGMRANNPEQNRLSECEEQAKAAKKGMWSEGNGSHTIRDLKYTIENPRHFVDSHHQKPVNAIIEHVRDGSVVRALLLPDYYLVTVMLSGIKCPTFRREADGSETPEPFAAEAKFFTESRLLQRDVQIILESCHNQNILGTILHPNGNITELLLKEGFARCVDWSIAVYTRGAEKLRAAERFAKERRLRIWRDYVAPTANLDQKDKQFVAKVMQVLNADAIVVKLNSGDYKTIHLSSIRPPRLEGENTQDKNKKLRPLYDIPYMFEAREFLRKKLIGKKVNVTVDYIRPASPATETVPAFSERTCATVTIGGINIAEALVSKGLATVIRYRQDDDQRSSHYDELLAAEARAIKNGKGLHSKKEVPIHRVADISGDTQKAKQFLPFLQRAGRSEAVVEYVFSGSRLKLYLPKETCLITFLLAGIECPRGARNLPGLVQEGEPFSEEATLFTKELVLQREVEVEVESMDKAGNFIGWLHIDGANLSVLLVEHALSKVHFTAERSSYYKSLLSAEEAAKQKKEKVWAHYEEQPVEEVMPVLEEKERSASYKPVFVTEITDDLHFYVQDVETGTQLEKLMENMRNDIASHPPVEGSYAPRRGEFCIAKFVDGEWYRARVEKVESPAKIHVFYIDYGNREVLPSTRLGTLSPAFSTRVLPAQATEYAFAFIQVPQDDDARTDAVDSVVRDIQNTQCLLNVEHLSAGCPHVTLQFADSKGDVGLGLVKEGLVMVEVRKEKQFQKVITEYLNAQESAKSARLNLWRYGDFRADDADEFGYSR | decreases |  |  |
| Staphylococcal nuclease domain-containing protein 1 (SND1): N168Q (protein) parent chain: MASSAQSGGSSGGPAVPTVQRGIIKMVLSGCAIIVRGQPRGGPPPERQINLSNIRAGNLARRAAATQPDAKDTPDEPWAFPAREFLRKKLIGKEVCFTIENKTPQGREYGMIYLGKDTNGENIAESLVAEGLATRREGMRANNPEQNRLSECEEQAKAAKKGMWSEGNGSHTIRDLKYTIENPRHFVDSHHQKPVNAIIEHVRDGSVVRALLLPDYYLVTVMLSGIKCPTFRREADGSETPEPFAAEAKFFTESRLLQRDVQIILESCHNQNILGTILHPNGNITELLLKEGFARCVDWSIAVYTRGAEKLRAAERFAKERRLRIWRDYVAPTANLDQKDKQFVAKVMQVLNADAIVVKLNSGDYKTIHLSSIRPPRLEGENTQDKNKKLRPLYDIPYMFEAREFLRKKLIGKKVNVTVDYIRPASPATETVPAFSERTCATVTIGGINIAEALVSKGLATVIRYRQDDDQRSSHYDELLAAEARAIKNGKGLHSKKEVPIHRVADISGDTQKAKQFLPFLQRAGRSEAVVEYVFSGSRLKLYLPKETCLITFLLAGIECPRGARNLPGLVQEGEPFSEEATLFTKELVLQREVEVEVESMDKAGNFIGWLHIDGANLSVLLVEHALSKVHFTAERSSYYKSLLSAEEAAKQKKEKVWAHYEEQPVEEVMPVLEEKERSASYKPVFVTEITDDLHFYVQDVETGTQLEKLMENMRNDIASHPPVEGSYAPRRGEFCIAKFVDGEWYRARVEKVESPAKIHVFYIDYGNREVLPSTRLGTLSPAFSTRVLPAQATEYAFAFIQVPQDDDARTDAVDSVVRDIQNTQCLLNVEHLSAGCPHVTLQFADSKGDVGLGLVKEGLVMVEVRKEKQFQKVITEYLNAQESAKSARLNLWRYGDFRADDADEFGYSR |  | no change | no change |
| Staphylococcal nuclease domain-containing protein 1 (SND1): N416Q (protein) parent chain: MASSAQSGGSSGGPAVPTVQRGIIKMVLSGCAIIVRGQPRGGPPPERQINLSNIRAGNLARRAAATQPDAKDTPDEPWAFPAREFLRKKLIGKEVCFTIENKTPQGREYGMIYLGKDTNGENIAESLVAEGLATRREGMRANNPEQNRLSECEEQAKAAKKGMWSEGNGSHTIRDLKYTIENPRHFVDSHHQKPVNAIIEHVRDGSVVRALLLPDYYLVTVMLSGIKCPTFRREADGSETPEPFAAEAKFFTESRLLQRDVQIILESCHNQNILGTILHPNGNITELLLKEGFARCVDWSIAVYTRGAEKLRAAERFAKERRLRIWRDYVAPTANLDQKDKQFVAKVMQVLNADAIVVKLNSGDYKTIHLSSIRPPRLEGENTQDKNKKLRPLYDIPYMFEAREFLRKKLIGKKVNVTVDYIRPASPATETVPAFSERTCATVTIGGINIAEALVSKGLATVIRYRQDDDQRSSHYDELLAAEARAIKNGKGLHSKKEVPIHRVADISGDTQKAKQFLPFLQRAGRSEAVVEYVFSGSRLKLYLPKETCLITFLLAGIECPRGARNLPGLVQEGEPFSEEATLFTKELVLQREVEVEVESMDKAGNFIGWLHIDGANLSVLLVEHALSKVHFTAERSSYYKSLLSAEEAAKQKKEKVWAHYEEQPVEEVMPVLEEKERSASYKPVFVTEITDDLHFYVQDVETGTQLEKLMENMRNDIASHPPVEGSYAPRRGEFCIAKFVDGEWYRARVEKVESPAKIHVFYIDYGNREVLPSTRLGTLSPAFSTRVLPAQATEYAFAFIQVPQDDDARTDAVDSVVRDIQNTQCLLNVEHLSAGCPHVTLQFADSKGDVGLGLVKEGLVMVEVRKEKQFQKVITEYLNAQESAKSARLNLWRYGDFRADDADEFGYSR |  | no change | no change |
| Staphylococcal nuclease domain-containing protein 1 (SND1): N50Q (protein) parent chain: MASSAQSGGSSGGPAVPTVQRGIIKMVLSGCAIIVRGQPRGGPPPERQINLSNIRAGNLARRAAATQPDAKDTPDEPWAFPAREFLRKKLIGKEVCFTIENKTPQGREYGMIYLGKDTNGENIAESLVAEGLATRREGMRANNPEQNRLSECEEQAKAAKKGMWSEGNGSHTIRDLKYTIENPRHFVDSHHQKPVNAIIEHVRDGSVVRALLLPDYYLVTVMLSGIKCPTFRREADGSETPEPFAAEAKFFTESRLLQRDVQIILESCHNQNILGTILHPNGNITELLLKEGFARCVDWSIAVYTRGAEKLRAAERFAKERRLRIWRDYVAPTANLDQKDKQFVAKVMQVLNADAIVVKLNSGDYKTIHLSSIRPPRLEGENTQDKNKKLRPLYDIPYMFEAREFLRKKLIGKKVNVTVDYIRPASPATETVPAFSERTCATVTIGGINIAEALVSKGLATVIRYRQDDDQRSSHYDELLAAEARAIKNGKGLHSKKEVPIHRVADISGDTQKAKQFLPFLQRAGRSEAVVEYVFSGSRLKLYLPKETCLITFLLAGIECPRGARNLPGLVQEGEPFSEEATLFTKELVLQREVEVEVESMDKAGNFIGWLHIDGANLSVLLVEHALSKVHFTAERSSYYKSLLSAEEAAKQKKEKVWAHYEEQPVEEVMPVLEEKERSASYKPVFVTEITDDLHFYVQDVETGTQLEKLMENMRNDIASHPPVEGSYAPRRGEFCIAKFVDGEWYRARVEKVESPAKIHVFYIDYGNREVLPSTRLGTLSPAFSTRVLPAQATEYAFAFIQVPQDDDARTDAVDSVVRDIQNTQCLLNVEHLSAGCPHVTLQFADSKGDVGLGLVKEGLVMVEVRKEKQFQKVITEYLNAQESAKSARLNLWRYGDFRADDADEFGYSR | decreases | decreases | increases |
| Staphylococcal nuclease domain-containing protein 1 (SND1): N283Q (protein) parent chain: MASSAQSGGSSGGPAVPTVQRGIIKMVLSGCAIIVRGQPRGGPPPERQINLSNIRAGNLARRAAATQPDAKDTPDEPWAFPAREFLRKKLIGKEVCFTIENKTPQGREYGMIYLGKDTNGENIAESLVAEGLATRREGMRANNPEQNRLSECEEQAKAAKKGMWSEGNGSHTIRDLKYTIENPRHFVDSHHQKPVNAIIEHVRDGSVVRALLLPDYYLVTVMLSGIKCPTFRREADGSETPEPFAAEAKFFTESRLLQRDVQIILESCHNQNILGTILHPNGNITELLLKEGFARCVDWSIAVYTRGAEKLRAAERFAKERRLRIWRDYVAPTANLDQKDKQFVAKVMQVLNADAIVVKLNSGDYKTIHLSSIRPPRLEGENTQDKNKKLRPLYDIPYMFEAREFLRKKLIGKKVNVTVDYIRPASPATETVPAFSERTCATVTIGGINIAEALVSKGLATVIRYRQDDDQRSSHYDELLAAEARAIKNGKGLHSKKEVPIHRVADISGDTQKAKQFLPFLQRAGRSEAVVEYVFSGSRLKLYLPKETCLITFLLAGIECPRGARNLPGLVQEGEPFSEEATLFTKELVLQREVEVEVESMDKAGNFIGWLHIDGANLSVLLVEHALSKVHFTAERSSYYKSLLSAEEAAKQKKEKVWAHYEEQPVEEVMPVLEEKERSASYKPVFVTEITDDLHFYVQDVETGTQLEKLMENMRNDIASHPPVEGSYAPRRGEFCIAKFVDGEWYRARVEKVESPAKIHVFYIDYGNREVLPSTRLGTLSPAFSTRVLPAQATEYAFAFIQVPQDDDARTDAVDSVVRDIQNTQCLLNVEHLSAGCPHVTLQFADSKGDVGLGLVKEGLVMVEVRKEKQFQKVITEYLNAQESAKSARLNLWRYGDFRADDADEFGYSR |  | no change | no change |
